Measured values: patent publication US20030045681A1 (published 2003)
One block for each molecule: values may come before it.

Experiments:
[1] = molecular target: hen egg lysozyme (hen) (UniProt P00698); experiment: radiolabeled scFv loaded onto an antigen column, flow-through and eluate counted
[2] = molecular target: an irrelevant antigen (antigen of HyHEL-10, not given); experiment: affinity chromatography of the conjugate on an antigen column
[3] = molecular target: T1, recombinant ED-B domain of fibronectin (UniProt P02751 1266-1356, biotinylated (biotin disulfide N-hydroxysuccinimide ester) in ELISA and the ECL competition; Cy5 at the N-terminal extremity in the band-shift assay); experiment: SPR (BIAcore), purified scFv on ED-B
T1 construct: domain: ED-B; also called biotinylated ED-B; ED-B-biotin
T1 sequence (P02751 1266-1356 limits assumed): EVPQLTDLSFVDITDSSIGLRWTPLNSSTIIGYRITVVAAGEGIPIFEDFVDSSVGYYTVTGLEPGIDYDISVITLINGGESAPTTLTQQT
Description: (§1) Meth., 206, 171-182) and affinity purified onto a CNBr-activated sepharose column (Pharmacia, Uppsala, Sweden), which had been coupled with 10 mg of ED-B containing 7B89 recombinant protein (Carnemolla et al. (1996). Int. J. Cancer, 68, 397-405). After loading, the column was washed with 50 ml of equilibration buffer (PBS, 1 mM EDTA, 0.5 M NaCl). Antibody fragments were then eluted with triethylamine 100 mM, immediately neutralised with 1M Hepes, pH 7, and dialysed against PBS. Affinity measurements by BIAcore were performed with purified antibodies as described (Neri et al. (1997). Nature Biotechnol., 15 1271-1275) [FIG. 4]. Band-shift analysis was performed as described (Neri et al. (1996). Nature Biotechnology, 14, 385-390), using recombinant ED-B fluorescently labeled at the N-terminal extremity (Carnemolla et al. (1996). Int. J. Cancer, 68, 397-405, Neri et al. (1997). Nature Biotechnol., 15 1271-1275) with the infrared fluorophore Cy5 (Amersham) [FIG. 4]. […] We therefore performed measurements of the kinetic dissociation constant koff by competition experiments (Neri et al. (1996), Trends in Biotechnol., 14, 465-470) [FIG. 4]. […] Streptavidin-coated dynabeads, diluted in Origen Assay Buffer (Deaver, D. R. (1995). Nature, 377, 758-760) were then added (20 μl, 1 mg/ml), and the resulting mixtures analysed with a ORIGEN Analyzer (IGEN Inc. Gaithersburg, Md. USA). […]

[4] = molecular target: T1, recombinant ED-B domain of fibronectin; experiment: Kd = koff/kon, koff from ECL competition, kon from BIAcore
Description: as §1, with “Int.” for “Meth., 206, 171-182) and affinity purified onto a CNBr-activated sepharose column (Pharmacia, Uppsala, Sweden), which had been coupled with 10 mg of ED-B containing 7B89 recombinant protein (Carnemolla et al. (1996). Int.”

[5] = molecular target: T1, recombinant ED-B domain of fibronectin; experiment: SPR (BIAcore); the footnote calls this value not sufficiently reliable
Description: as §1

[6] = molecular target: T1, recombinant ED-B domain of fibronectin; experiment: competition of the scFv-(biotinylated ED-B) complex with excess unbiotinylated ED-B, electrochemiluminescent detection (Origen)
Description: as §1, with “Int.” for “Meth., 206, 171-182) and affinity purified onto a CNBr-activated sepharose column (Pharmacia, Uppsala, Sweden), which had been coupled with 10 mg of ED-B containing 7B89 recombinant protein (Carnemolla et al. (1996). Int.”

Sequence of hen egg lysozyme (hen) (P00698 19-147): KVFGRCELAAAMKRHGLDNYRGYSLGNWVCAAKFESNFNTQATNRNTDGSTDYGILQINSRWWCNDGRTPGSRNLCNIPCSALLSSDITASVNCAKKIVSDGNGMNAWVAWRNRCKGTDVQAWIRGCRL

immunoreactivity [1]: > 80%
Molecule: radioiodinated scFv(D1.3)

immunoreactivity [2]: > 78%
Molecule: scFv(HyHEL-10)-Cy5

kon [3]: 110000 M⁻¹ s⁻¹
Kd [4]: 0.054 nM
koff [5]: 9.6e-05 s⁻¹
koff [6]: 6e-06 s⁻¹
B1: scFv(L19) (scFv)
scFv: EVQLLESGGGLVQPGGSLRLSCAASGFTFSSFSMSWVRQAPGKGLEWVSSISGSSGTTYYADSVKGRFTISRDNSKNTLYLQMNSLRAEDTAVYYCAKPFPYFDYWGQGTLVTVSSGDGSSGGSGGASTGEIVLTQSPGTLSLSPGERATLSCRASQSVSSSYLAWYQQKPGQAPRLLIYYASSRATGIPDRFSGSGSGTDFTLTISRLEPEDFAVYYCQQTGRIPPTFGQGTKVEIKDDDSDDDYKDDDDKHHHHHH
notes: also called antibody L19; anti-ED-B L19
